Measurements taken from patent US20140087995A1 (published 2014).
Numbered stars: 1 amine (or outer) side, 2 acyl side, 3 side chain; on linkers, the order of the positions; unused ones are H or OH. Bridge positions count the residues as written; N and C are the ends. Side chains are listed from the residue outwards. Ends that are not written are not given here. * marks the point of attachment. C20 diacid = O=C(O)CCCCCCCCCCCCCCCCCCC(=O)*; γGlu = O=C(O)[C@H](CCC(=O)[*:2])N[*:1]; AEEA = NCCOCCOCC(=O)O

T1: human calcitonin receptor (human, UniProt P30988 25-474)
T1 construct: whole, on cells; also called hCTR; hCT
T1 sequence (looked up): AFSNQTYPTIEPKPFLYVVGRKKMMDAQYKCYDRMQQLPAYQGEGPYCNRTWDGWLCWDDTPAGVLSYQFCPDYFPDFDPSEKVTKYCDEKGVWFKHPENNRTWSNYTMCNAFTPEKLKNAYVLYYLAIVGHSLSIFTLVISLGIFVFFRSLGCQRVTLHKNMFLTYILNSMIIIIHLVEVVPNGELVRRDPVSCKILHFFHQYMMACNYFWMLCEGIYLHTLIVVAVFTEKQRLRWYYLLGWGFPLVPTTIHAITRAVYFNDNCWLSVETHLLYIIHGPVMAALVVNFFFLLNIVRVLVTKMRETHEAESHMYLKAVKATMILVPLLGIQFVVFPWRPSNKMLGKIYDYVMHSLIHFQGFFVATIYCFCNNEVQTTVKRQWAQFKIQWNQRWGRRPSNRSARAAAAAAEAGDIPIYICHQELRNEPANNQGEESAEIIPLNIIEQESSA


Target: T1, human calcitonin receptor
Test: SPA competition with 125I-calcitonin, membranes of BHK hCTR cells (Assay VII)
Procedure: Membranes were prepared in the following way; the cells were rinsed with PBS and incubated with Versene for approximately 5 min before harvesting. The cells were flushed with PBS and the cell-suspension was centrifuged for 5 min at 1000 rpm. Cells were homogenized (Ultrathurrax) in a buffer containing 20 mM Na-HEPES and 10 mM EDTA (pH 7.4) and centrifuged at 20.000 rpm for 15 min. The resulting pellet was resuspended, homogenized and centrifuged (20.000 rpm, 15 min) in a buffer containing 20 mM Na-HEPES and 0.1 mM EDTA (pH 7.4, buffer 2). The resulting pellet was resuspended in buffer 2 and protein concentration was measured (BCA protein Assay, Pierce). The homogenate was kept cold during the whole procedure. The membranes were kept at −80° C. until use. Assay was performed in a 384 well Optiplate (PerkinElmer) in a total volume of 40 ul. Membranes were mixed with SPA beads. Final concentration of membranes 35 ng/μL final and Final concentration of SPA beads was 0.05 mg/well. Test-compounds were dissolved in DMSO and further diluted in assay buffer (50 mM Hepes, pH 7.4, 1 mM CaCl2, 5 mM MgCl₂, 0.1% OA and 0.02% Tween20). […] The final mixture was incubated for 120 min with shaking at 400 rpm at 25° C. prior to centrifugation (1500 rpm, 10 min). Samples were analyzed on TopCounter™ (Packard). The […] was calculated using (one site binding competition analysis) GraphPad Prism5 as a measure of receptor affinity.

Binder | IC50
K([AEEA-γGlu-C20 diacid])CNTATCATQRLANFLRHSSPNFGAIPPSTNVGPNTY-NH2 (disulfide 2-7; N-terminus assumed; SMILES CC[C@H](C)[C@H](NC(=O)[C@H](C)NC(=O)CNC(=O)[C@H](Cc1ccccc1)NC(=O)[C@H](CC(N)=O)NC(=O)[C@@H]1CCCN1C(=O)[C@H](CO)NC(=O)[C@H](CO)NC(=O)[C@H](Cc1c[nH]cn1)NC(=O)[C@H](CCCNC(=N)N)NC(=O)[C@H](CC(C)C)NC(=O)[C@H](Cc1ccccc1)NC(=O)[C@H](CC(N)=O)NC(=O)[C@H](C)NC(=O)[C@H](CC(C)C)NC(=O)[C@H](CCCNC(=N)N)NC(=O)[C@H](CCC(N)=O)NC(=O)[C@@H](NC(=O)[C@H](C)NC(=O)[C@@H]1CSSC[C@H](NC(=O)[C@@H](N)CCCCNC(=O)COCCOCCNC(=O)CC[C@H](NC(=O)CCCCCCCCCCCCCCCCCCC(=O)O)C(=O)O)C(=O)N[C@@H](CC(N)=O)C(=O)N[C@@H]([C@@H](C)O)C(=O)N[C@@H](C)C(=O)N[C@@H]([C@@H](C)O)C(=O)N1)[C@@H](C)O)C(=O)N1CCC[C@H]1C(=O)N1CCC[C@H]1C(=O)N[C@@H](CO)C(=O)N[C@H](C(=O)N[C@@H](CC(N)=O)C(=O)N[C@H](C(=O)NCC(=O)N1CCC[C@H]1C(=O)N[C@@H](CC(N)=O)C(=O)N[C@H](C(=O)N[C@@H](Cc1ccc(O)cc1)C(N)=O)[C@@H](C)O)C(C)C)[C@@H](C)O, also called compound 55) | 2.17 nM
K([AEEA-γGlu-C20 diacid])CNTATCATQRLANFLRHSSPNFGAIPSPTNVGPNTY-NH2 (disulfide 2-7; N-terminus assumed; SMILES CC[C@H](C)[C@H](NC(=O)[C@H](C)NC(=O)CNC(=O)[C@H](Cc1ccccc1)NC(=O)[C@H](CC(N)=O)NC(=O)[C@@H]1CCCN1C(=O)[C@H](CO)NC(=O)[C@H](CO)NC(=O)[C@H](Cc1c[nH]cn1)NC(=O)[C@H](CCCNC(=N)N)NC(=O)[C@H](CC(C)C)NC(=O)[C@H](Cc1ccccc1)NC(=O)[C@H](CC(N)=O)NC(=O)[C@H](C)NC(=O)[C@H](CC(C)C)NC(=O)[C@H](CCCNC(=N)N)NC(=O)[C@H](CCC(N)=O)NC(=O)[C@@H](NC(=O)[C@H](C)NC(=O)[C@@H]1CSSC[C@H](NC(=O)[C@@H](N)CCCCNC(=O)COCCOCCNC(=O)CC[C@H](NC(=O)CCCCCCCCCCCCCCCCCCC(=O)O)C(=O)O)C(=O)N[C@@H](CC(N)=O)C(=O)N[C@@H]([C@@H](C)O)C(=O)N[C@@H](C)C(=O)N[C@@H]([C@@H](C)O)C(=O)N1)[C@@H](C)O)C(=O)N1CCC[C@H]1C(=O)N[C@@H](CO)C(=O)N1CCC[C@H]1C(=O)N[C@H](C(=O)N[C@@H](CC(N)=O)C(=O)N[C@H](C(=O)NCC(=O)N1CCC[C@H]1C(=O)N[C@@H](CC(N)=O)C(=O)N[C@H](C(=O)N[C@@H](Cc1ccc(O)cc1)C(N)=O)[C@@H](C)O)C(C)C)[C@@H](C)O, also called compound 56) | 2.09 nM
K([AEEA-γGlu-C20 diacid])CNTATCATQRLANFLRHSSPNFGAIPSPTPVGSNTY-NH2 (disulfide 2-7; N-terminus assumed; SMILES CC[C@H](C)[C@H](NC(=O)[C@H](C)NC(=O)CNC(=O)[C@H](Cc1ccccc1)NC(=O)[C@H](CC(N)=O)NC(=O)[C@@H]1CCCN1C(=O)[C@H](CO)NC(=O)[C@H](CO)NC(=O)[C@H](Cc1c[nH]cn1)NC(=O)[C@H](CCCNC(=N)N)NC(=O)[C@H](CC(C)C)NC(=O)[C@H](Cc1ccccc1)NC(=O)[C@H](CC(N)=O)NC(=O)[C@H](C)NC(=O)[C@H](CC(C)C)NC(=O)[C@H](CCCNC(=N)N)NC(=O)[C@H](CCC(N)=O)NC(=O)[C@@H](NC(=O)[C@H](C)NC(=O)[C@@H]1CSSC[C@H](NC(=O)[C@@H](N)CCCCNC(=O)COCCOCCNC(=O)CC[C@H](NC(=O)CCCCCCCCCCCCCCCCCCC(=O)O)C(=O)O)C(=O)N[C@@H](CC(N)=O)C(=O)N[C@@H]([C@@H](C)O)C(=O)N[C@@H](C)C(=O)N[C@@H]([C@@H](C)O)C(=O)N1)[C@@H](C)O)C(=O)N1CCC[C@H]1C(=O)N[C@@H](CO)C(=O)N1CCC[C@H]1C(=O)N[C@H](C(=O)N1CCC[C@H]1C(=O)N[C@H](C(=O)NCC(=O)N[C@@H](CO)C(=O)N[C@@H](CC(N)=O)C(=O)N[C@H](C(=O)N[C@@H](Cc1ccc(O)cc1)C(N)=O)[C@@H](C)O)C(C)C)[C@@H](C)O, also called compound 54) | 4.38 nM

Other lines, results leading:

IC50 | Binder
1.38 nM | K([AEEA-γGlu-C20 diacid])CNTATCATQRLANFLRHSSPNFGAIPSSTNVGPNTY-NH2 (disulfide 2-7; N-terminus assumed; SMILES CC[C@H](C)[C@H](NC(=O)[C@H](C)NC(=O)CNC(=O)[C@H](Cc1ccccc1)NC(=O)[C@H](CC(N)=O)NC(=O)[C@@H]1CCCN1C(=O)[C@H](CO)NC(=O)[C@H](CO)NC(=O)[C@H](Cc1c[nH]cn1)NC(=O)[C@H](CCCNC(=N)N)NC(=O)[C@H](CC(C)C)NC(=O)[C@H](Cc1ccccc1)NC(=O)[C@H](CC(N)=O)NC(=O)[C@H](C)NC(=O)[C@H](CC(C)C)NC(=O)[C@H](CCCNC(=N)N)NC(=O)[C@H](CCC(N)=O)NC(=O)[C@@H](NC(=O)[C@H](C)NC(=O)[C@@H]1CSSC[C@H](NC(=O)[C@@H](N)CCCCNC(=O)COCCOCCNC(=O)CC[C@H](NC(=O)CCCCCCCCCCCCCCCCCCC(=O)O)C(=O)O)C(=O)N[C@@H](CC(N)=O)C(=O)N[C@@H]([C@@H](C)O)C(=O)N[C@@H](C)C(=O)N[C@@H]([C@@H](C)O)C(=O)N1)[C@@H](C)O)C(=O)N1CCC[C@H]1C(=O)N[C@@H](CO)C(=O)N[C@@H](CO)C(=O)N[C@H](C(=O)N[C@@H](CC(N)=O)C(=O)N[C@H](C(=O)NCC(=O)N1CCC[C@H]1C(=O)N[C@@H](CC(N)=O)C(=O)N[C@H](C(=O)N[C@@H](Cc1ccc(O)cc1)C(N)=O)[C@@H](C)O)C(C)C)[C@@H](C)O, also called compound 50)
15.3 nM | K([AEEA-γGlu-C20 diacid])CNTATCATQRLANFLRHSSPNFGAIPSSTPVGSHTY-NH2 (disulfide 2-7; N-terminus assumed; SMILES CC[C@H](C)[C@H](NC(=O)[C@H](C)NC(=O)CNC(=O)[C@H](Cc1ccccc1)NC(=O)[C@H](CC(N)=O)NC(=O)[C@@H]1CCCN1C(=O)[C@H](CO)NC(=O)[C@H](CO)NC(=O)[C@H](Cc1c[nH]cn1)NC(=O)[C@H](CCCNC(=N)N)NC(=O)[C@H](CC(C)C)NC(=O)[C@H](Cc1ccccc1)NC(=O)[C@H](CC(N)=O)NC(=O)[C@H](C)NC(=O)[C@H](CC(C)C)NC(=O)[C@H](CCCNC(=N)N)NC(=O)[C@H](CCC(N)=O)NC(=O)[C@@H](NC(=O)[C@H](C)NC(=O)[C@@H]1CSSC[C@H](NC(=O)[C@@H](N)CCCCNC(=O)COCCOCCNC(=O)CC[C@H](NC(=O)CCCCCCCCCCCCCCCCCCC(=O)O)C(=O)O)C(=O)N[C@@H](CC(N)=O)C(=O)N[C@@H]([C@@H](C)O)C(=O)N[C@@H](C)C(=O)N[C@@H]([C@@H](C)O)C(=O)N1)[C@@H](C)O)C(=O)N1CCC[C@H]1C(=O)N[C@@H](CO)C(=O)N[C@@H](CO)C(=O)N[C@H](C(=O)N1CCC[C@H]1C(=O)N[C@H](C(=O)NCC(=O)N[C@@H](CO)C(=O)N[C@@H](Cc1c[nH]cn1)C(=O)N[C@H](C(=O)N[C@@H](Cc1ccc(O)cc1)C(N)=O)[C@@H](C)O)C(C)C)[C@@H](C)O, also called compound 57)
9.63 nM | K([AEEA-γGlu-C20 diacid])CNTATCATQRLANFLRHSSPNFGAIPSSTNVGPHTY-NH2 (disulfide 2-7; N-terminus assumed; SMILES CC[C@H](C)[C@H](NC(=O)[C@H](C)NC(=O)CNC(=O)[C@H](Cc1ccccc1)NC(=O)[C@H](CC(N)=O)NC(=O)[C@@H]1CCCN1C(=O)[C@H](CO)NC(=O)[C@H](CO)NC(=O)[C@H](Cc1c[nH]cn1)NC(=O)[C@H](CCCNC(=N)N)NC(=O)[C@H](CC(C)C)NC(=O)[C@H](Cc1ccccc1)NC(=O)[C@H](CC(N)=O)NC(=O)[C@H](C)NC(=O)[C@H](CC(C)C)NC(=O)[C@H](CCCNC(=N)N)NC(=O)[C@H](CCC(N)=O)NC(=O)[C@@H](NC(=O)[C@H](C)NC(=O)[C@@H]1CSSC[C@H](NC(=O)[C@@H](N)CCCCNC(=O)COCCOCCNC(=O)CC[C@H](NC(=O)CCCCCCCCCCCCCCCCCCC(=O)O)C(=O)O)C(=O)N[C@@H](CC(N)=O)C(=O)N[C@@H]([C@@H](C)O)C(=O)N[C@@H](C)C(=O)N[C@@H]([C@@H](C)O)C(=O)N1)[C@@H](C)O)C(=O)N1CCC[C@H]1C(=O)N[C@@H](CO)C(=O)N[C@@H](CO)C(=O)N[C@H](C(=O)N[C@@H](CC(N)=O)C(=O)N[C@H](C(=O)NCC(=O)N1CCC[C@H]1C(=O)N[C@@H](Cc1c[nH]cn1)C(=O)N[C@H](C(=O)N[C@@H](Cc1ccc(O)cc1)C(N)=O)[C@@H](C)O)C(C)C)[C@@H](C)O, also called compound 58)
